Reference: publication PMC8471396
“And” between values parts separate entries of the source, which are not always exact repeats. Equal entries are not always repeated.

What was measured:
[1] = biological target: succinate-acetate permease (SatP) from Citrobacter koseri ATCC BAA-895 (Citrobacter koseri ATCC BAA-895); test: cross-linking; SatP in DOPC/DOPG liposomes, 10 uM protein in 20 mM HEPES pH 7.3; 0.5 mM BS3 (DMSO as control), room temperature, 1 h; 4-20% gradient SDS-PAGE
[2] = biological target: succinate-acetate permease (SatP) from Citrobacter koseri ATCC BAA-895 (Citrobacter koseri ATCC BAA-895); test: SDS-PAGE and Western blot of oligomer bands; SatP in SMA native nanodiscs from E. coli membranes, after the nickel affinity column; no cross-linker; anti-His Western blot

Substance: succinate-acetate permease (SatP) from Citrobacter koseri ATCC BAA-895 (natural protein)
- stoichiometry N [1]: 6 and 5 and 4
- stoichiometry N [2]: 6
